Measured values published in paper PMC9482650, “Quantitative fragmentomics allow affinity mapping of interactomes” (Nature Communications, 2022).

T1: DFNB31_3, Q9P202
T1 sequence (Q9P202 811-907, limits assumed, looked up): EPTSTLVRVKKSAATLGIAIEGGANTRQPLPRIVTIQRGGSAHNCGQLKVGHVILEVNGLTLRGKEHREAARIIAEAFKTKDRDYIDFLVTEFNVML

T2: DLG3_3, Q92796
T2 sequence (Q92796 374-475, limits assumed, looked up): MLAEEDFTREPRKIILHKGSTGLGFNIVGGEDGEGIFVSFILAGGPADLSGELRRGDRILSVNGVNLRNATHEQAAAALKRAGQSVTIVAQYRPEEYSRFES

T3: APBA3_1, O96018
T3 sequence (O96018 389-490, limits assumed, looked up): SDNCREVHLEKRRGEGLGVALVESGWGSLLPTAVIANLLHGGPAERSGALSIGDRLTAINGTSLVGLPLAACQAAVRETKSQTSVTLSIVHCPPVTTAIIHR

T4: TJP3_3, O95049
T4 sequence (O95049 375-456, limits assumed, looked up): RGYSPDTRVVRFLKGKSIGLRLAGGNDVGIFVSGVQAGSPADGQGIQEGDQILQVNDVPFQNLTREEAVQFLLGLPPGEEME

T5: SNTG1, Q9NSN8
T5 sequence (Q9NSN8 52-150, limits assumed, looked up): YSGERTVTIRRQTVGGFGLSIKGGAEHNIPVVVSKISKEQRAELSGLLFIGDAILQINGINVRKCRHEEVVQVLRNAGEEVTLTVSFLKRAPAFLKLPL

T6: GRIP1_7, Q9Y3R0
T6 sequence (Q9Y3R0 999-1096, limits assumed, looked up): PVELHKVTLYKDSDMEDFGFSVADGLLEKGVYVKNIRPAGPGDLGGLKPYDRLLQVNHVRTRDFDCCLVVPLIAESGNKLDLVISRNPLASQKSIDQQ

T7: MPDZ_12, O75970
T7 sequence (O75970 1857-1958, limits assumed, looked up): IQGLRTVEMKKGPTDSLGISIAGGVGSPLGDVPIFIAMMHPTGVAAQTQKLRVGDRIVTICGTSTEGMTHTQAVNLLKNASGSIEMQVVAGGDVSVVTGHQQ

T8: LIN7A, O14910
T8 sequence (O14910 103-200, limits assumed, looked up): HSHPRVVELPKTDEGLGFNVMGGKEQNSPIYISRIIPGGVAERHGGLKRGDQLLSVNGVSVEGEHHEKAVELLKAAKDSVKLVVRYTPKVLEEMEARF

T9: PDZD2_2, O15018
T9 sequence (O15018 329-429, limits assumed, looked up): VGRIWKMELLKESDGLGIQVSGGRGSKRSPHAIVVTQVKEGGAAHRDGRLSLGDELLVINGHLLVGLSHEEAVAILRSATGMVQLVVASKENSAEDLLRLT


Tests used:
Assay in all cases: holdup assay
Parameters in all cases: key: below the threshold = too weak to quantify, mostly under pKd 3.1 to 4
TJP1_2, Q07157 = molecular target: TJP1_2, Q07157
DLG1_3, Q12959 = molecular target: DLG1_3, Q12959
DFNB31_3, Q9P202 = molecular target: T1, DFNB31_3, Q9P202; settings: plain residues with an end cap or a label only (N-terminal biotin on a linker: ttds)
MAGI2_6, Q86UL8 = settings: plain residues with an end cap or a label only (N-terminal biotin on a linker: ttds)
DLG1_2, Q12959 = molecular target: DLG1_2, Q12959
NHERF2_2, Q15599 = molecular target: NHERF2_2, Q15599
DLG1_1, Q12959 = settings: plain residues with an end cap or a label only (N-terminal biotin on a linker: ttds)
DLG3_3, Q92796 = molecular target: T2, DLG3_3, Q92796; settings: plain residues with an end cap or a label only (N-terminal biotin on a linker: ttds)
APBA3_1, O96018 = molecular target: T3, APBA3_1, O96018; settings: plain residues with an end cap or a label only (N-terminal biotin on a linker: ttds)
GOPC, Q9HD26 = molecular target: GOPC, Q9HD26
TJP3_3, O95049 = molecular target: T4, TJP3_3, O95049; settings: plain residues with an end cap or a label only (N-terminal biotin on a linker: ttds)
SNTG1, Q9NSN8 = molecular target: T5, SNTG1, Q9NSN8; settings: plain residues with an end cap or a label only (N-terminal biotin on a linker: ttds)
GRIP1_7, Q9Y3R0 = molecular target: T6, GRIP1_7, Q9Y3R0
MPDZ_12, O75970 = molecular target: T7, MPDZ_12, O75970
Inadl_1, Q8NI35 = settings: plain residues with an end cap or a label only (N-terminal biotin on a linker: ttds)
LIN7A, O14910 = molecular target: T8, LIN7A, O14910
NOS1, P29475 = molecular target: NOS1, P29475
LAP2, Q96RT1 = molecular target: LAP2, Q96RT1
GRIP2_6, Q9C0E4 = molecular target: GRIP2_6, Q9C0E4
IL16_1, Q14005 = molecular target: IL16_1, Q14005
MAST1, Q9Y2H9 = settings: plain residues with an end cap or a label only (N-terminal biotin on a linker: ttds)
GRIP2_4, Q9C0E4 = molecular target: GRIP2_4, Q9C0E4
FRMPD2_3, Q68DX3 = settings: plain residues with an end cap or a label only (N-terminal biotin on a linker: ttds)
GORASP2, Q9H8Y8 = molecular target: GORASP2, Q9H8Y8
Inadl_4, Q8NI35 = settings: plain residues with an end cap or a label only (N-terminal biotin on a linker: ttds)
LNX1_2, Q8TBB1 = settings: plain residues with an end cap or a label only (N-terminal biotin on a linker: ttds)
PARD3_3, Q8TEW0 = molecular target: PARD3_3, Q8TEW0
PDZD2_2, O15018 = molecular target: T9, PDZD2_2, O15018
PDZRN4_1, Q6ZMN7 = settings: plain residues with an end cap or a label only (N-terminal biotin on a linker: ttds)
[1] = plain residues with an end cap or a label only (N-terminal biotin on a linker: ttds)
[2] = plain residues with an end cap or a label only (N-terminal biotin on a linker: ado-ado)

Chain of Inadl_4, Q8NI35 (Q8NI35 547-651): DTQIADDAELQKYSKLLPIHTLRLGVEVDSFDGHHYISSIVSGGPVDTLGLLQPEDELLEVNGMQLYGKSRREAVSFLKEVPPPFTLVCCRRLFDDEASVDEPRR
Chain of LNX1_2, Q8TBB1 (Q8TBB1 371-470): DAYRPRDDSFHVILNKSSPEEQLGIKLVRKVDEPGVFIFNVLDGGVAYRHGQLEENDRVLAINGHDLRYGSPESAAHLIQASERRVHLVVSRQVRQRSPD
Chain of MAGI2_6, Q86UL8 (Q86UL8 1141-1229): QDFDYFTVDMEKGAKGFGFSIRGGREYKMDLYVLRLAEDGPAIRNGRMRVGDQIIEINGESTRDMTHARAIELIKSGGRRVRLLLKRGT
Chain of NHERF2_2, Q15599 (Q15599 142-238): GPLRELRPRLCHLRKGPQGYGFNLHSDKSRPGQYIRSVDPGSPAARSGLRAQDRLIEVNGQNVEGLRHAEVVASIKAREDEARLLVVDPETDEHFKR
Chain of IL16_1, Q14005 (Q14005 210-306): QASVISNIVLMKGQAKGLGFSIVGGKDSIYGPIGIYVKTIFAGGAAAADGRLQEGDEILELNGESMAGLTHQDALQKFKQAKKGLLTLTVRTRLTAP
Chain of PDZRN4_1, Q6ZMN7 (Q6ZMN7 213-318): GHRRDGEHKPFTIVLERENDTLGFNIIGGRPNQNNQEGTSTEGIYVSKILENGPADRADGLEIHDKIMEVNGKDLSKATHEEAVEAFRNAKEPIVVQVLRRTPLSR
Chain of Inadl_1, Q8NI35 (Q8NI35 113-229): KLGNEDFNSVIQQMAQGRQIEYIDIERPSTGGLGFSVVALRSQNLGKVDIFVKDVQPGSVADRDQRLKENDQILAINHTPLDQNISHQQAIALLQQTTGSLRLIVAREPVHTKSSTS
Chain of LAP2, Q96RT1 (Q96RT1 other isoform, or with tags, fused parts or gaps): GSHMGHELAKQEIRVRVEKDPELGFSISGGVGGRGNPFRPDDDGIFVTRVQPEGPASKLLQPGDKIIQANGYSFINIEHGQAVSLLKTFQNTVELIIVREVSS
Chain of FRMPD2_3, Q68DX3 (Q68DX3 1073-1166): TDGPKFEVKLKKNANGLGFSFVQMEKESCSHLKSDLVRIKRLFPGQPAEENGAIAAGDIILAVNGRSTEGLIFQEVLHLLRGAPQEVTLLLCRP
Chain of GRIP2_6, Q9C0E4 (Q9C0E4 648-740): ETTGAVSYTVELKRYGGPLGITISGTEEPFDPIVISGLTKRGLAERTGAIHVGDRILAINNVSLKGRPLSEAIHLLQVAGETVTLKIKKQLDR
Chain of MAST1, Q9Y2H9 (Q9Y2H9 962-1065): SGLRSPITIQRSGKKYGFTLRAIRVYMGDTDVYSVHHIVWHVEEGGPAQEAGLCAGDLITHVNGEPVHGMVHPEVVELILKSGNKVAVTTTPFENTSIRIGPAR
Chain of GRIP2_4, Q9C0E4 (Q9C0E4 446-548): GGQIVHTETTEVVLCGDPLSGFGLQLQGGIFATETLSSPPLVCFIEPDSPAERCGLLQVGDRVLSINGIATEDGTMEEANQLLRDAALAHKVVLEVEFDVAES
Chain of PARD3_3, Q8TEW0 (Q8TEW0 582-685): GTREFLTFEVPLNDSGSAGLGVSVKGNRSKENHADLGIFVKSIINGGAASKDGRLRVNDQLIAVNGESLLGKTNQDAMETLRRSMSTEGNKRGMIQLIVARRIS
Chain of NOS1, P29475 (P29475 9-101): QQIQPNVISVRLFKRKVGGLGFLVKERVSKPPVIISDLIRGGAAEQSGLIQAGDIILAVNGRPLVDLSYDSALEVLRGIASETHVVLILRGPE
Chain of TJP1_2, Q07157 (Q07157 181-274): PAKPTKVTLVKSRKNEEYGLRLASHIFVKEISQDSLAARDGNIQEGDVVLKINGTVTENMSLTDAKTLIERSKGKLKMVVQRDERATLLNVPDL

Binder	pKd (TJP1_2, Q07157; [1])	pKd (DLG1_3, Q12959; [1])	pKd (DFNB31_3, Q9P202)	pKd (MAGI2_6, Q86UL8)	pKd (DLG1_2, Q12959; [1])	pKd (NHERF2_2, Q15599; [1])	pKd (DLG1_1, Q12959)	pKd (DLG3_3, Q92796)	pKd (APBA3_1, O96018)	pKd (TJP3_3, O95049)	pKd (SNTG1, Q9NSN8)	pKd (GRIP1_7, Q9Y3R0; [1])	pKd (MPDZ_12, O75970; [1])	pKd (Inadl_1, Q8NI35)	pKd (LIN7A, O14910; [1])	pKd (NOS1, P29475; [1])	pKd (LAP2, Q96RT1; [1])	pKd (GRIP2_6, Q9C0E4; [1])	pKd (IL16_1, Q14005; [1])	pKd (MAST1, Q9Y2H9)	other results
RSLEEEESQL [GRASP, Q7Z6J2]	below the threshold	4.36	3.74	below the threshold	below the threshold	5.07	below the threshold	3.81	below the threshold	3.65	3.86	below the threshold	below the threshold	below the threshold	3.56	3.6	3.69	3.64	below the threshold	4.83	pKd (GOPC, Q9HD26; [1]): 4.01; pKd (GRIP2_4, Q9C0E4; [1]): 3.75; pKd (FRMPD2_3, Q68DX3): 4.08; pKd (GORASP2, Q9H8Y8; [1]): below the threshold; pKd (Inadl_4, Q8NI35): 3.83; pKd (LNX1_2, Q8TBB1): 3.56; pKd (PARD3_3, Q8TEW0; [1]): 4.13; pKd (PDZD2_2, O15018; [1]): 3.98; pKd (PDZRN4_1, Q6ZMN7): 4.17
KSRVAFFEEL [NF2, P35240]																					pKd (TJP1_2, Q07157; [2]): 3.51; pKd (DLG1_3, Q12959; [2]): 3.82; pKd (DLG1_2, Q12959; [2]): 3.5; pKd (NHERF2_2, Q15599; [2]): 3.89; pKd (GOPC, Q9HD26; [2]): 3.63; pKd (GRIP1_7, Q9Y3R0; [2]): 3.49; pKd (LIN7A, O14910; [2]): 3.51; pKd (NOS1, P29475; [2]): 3.58; pKd (GRIP2_6, Q9C0E4; [2]): 3.77; pKd (IL16_1, Q14005; [2]): 3.5; pKd (GRIP2_4, Q9C0E4; [2]): 3.73; pKd (GORASP2, Q9H8Y8; [2]): 3.87; pKd (PARD3_3, Q8TEW0; [2]): 3.72; pKd (PDZD2_2, O15018; [2]): 3.71
KRPEMTSSSV [MUC3B, MUC3A, Q02505;Q9H195]																					pKd (TJP1_2, Q07157; [2]): below the threshold; pKd (DLG1_2, Q12959; [2]): 4.06; pKd (GOPC, Q9HD26; [2]): 3.96; pKd (MPDZ_12, O75970; [2]): below the threshold; pKd (NOS1, P29475; [2]): below the threshold; pKd (LAP2, Q96RT1; [2]): 1.89; pKd (IL16_1, Q14005; [2]): 3.94; pKd (PDZD2_2, O15018; [2]): 5.11
SVWLRKETRV [CYSLTR2, Q9NS75]	below the threshold	5.57	below the threshold	3.51	5.78	3.78	5.14	5.34	below the threshold	3.37	4.43	3.77	below the threshold	below the threshold	4.17	3.85	4.15	below the threshold	3.92	5.29	pKd (GOPC, Q9HD26; [1]): 4.27; pKd (GRIP2_4, Q9C0E4; [1]): below the threshold; pKd (FRMPD2_3, Q68DX3): 3.57; pKd (GORASP2, Q9H8Y8; [1]): 4.01; pKd (Inadl_4, Q8NI35): below the threshold; pKd (LNX1_2, Q8TBB1): 3.4; pKd (PARD3_3, Q8TEW0; [1]): 3.46; pKd (PDZD2_2, O15018; [1]): 3.8; pKd (PDZRN4_1, Q6ZMN7): 4.76
ERKLSSESQV [LRP4, O75096]	below the threshold	below the threshold	below the threshold	3.51	4.75	below the threshold	3.82	3.51	below the threshold	below the threshold	4.37	below the threshold	below the threshold	below the threshold	below the threshold	3.81	3.74	below the threshold	3.59	below the threshold	pKd (GOPC, Q9HD26; [1]): below the threshold; pKd (GRIP2_4, Q9C0E4; [1]): below the threshold; pKd (FRMPD2_3, Q68DX3): below the threshold; pKd (GORASP2, Q9H8Y8; [1]): 4.39; pKd (Inadl_4, Q8NI35): below the threshold; pKd (LNX1_2, Q8TBB1): below the threshold; pKd (PARD3_3, Q8TEW0; [1]): below the threshold; pKd (PDZD2_2, O15018; [1]): 4.39; pKd (PDZRN4_1, Q6ZMN7): below the threshold
SRPQRTQTQV [HPV67-E6, A4U7F2]	below the threshold	4.13	below the threshold	below the threshold	5.01	below the threshold	4.52	4.3	below the threshold	below the threshold	below the threshold	below the threshold	below the threshold	below the threshold	below the threshold	3.81	below the threshold	below the threshold	below the threshold	4.47	pKd (GOPC, Q9HD26; [1]): 3.58; pKd (GRIP2_4, Q9C0E4; [1]): below the threshold; pKd (FRMPD2_3, Q68DX3): below the threshold; pKd (GORASP2, Q9H8Y8; [1]): below the threshold; pKd (Inadl_4, Q8NI35): below the threshold; pKd (LNX1_2, Q8TBB1): below the threshold; pKd (PARD3_3, Q8TEW0; [1]): below the threshold; pKd (PDZD2_2, O15018; [1]): 3.77; pKd (PDZRN4_1, Q6ZMN7): 3.82
SSRTRRETQL [HPV16-E6, P03126]	below the threshold	4.7	below the threshold	3.61	5.06	4.19	4.67	4.88	below the threshold	3.68	3.8	below the threshold	below the threshold	below the threshold	below the threshold	4.08	below the threshold	below the threshold	below the threshold	4.23	pKd (GRIP2_4, Q9C0E4; [1]): below the threshold; pKd (FRMPD2_3, Q68DX3): below the threshold; pKd (GORASP2, Q9H8Y8; [1]): 4.02; pKd (Inadl_4, Q8NI35): below the threshold; pKd (LNX1_2, Q8TBB1): 3.47; pKd (PARD3_3, Q8TEW0; [1]): 3.65; pKd (PDZD2_2, O15018; [1]): below the threshold; pKd (PDZRN4_1, Q6ZMN7): 5.25
